Among the data in PMC9490022, “Enhanced salt-tolerance of Bacillus subtilis glutaminase by fusing self-assembling amphipathic peptides at its N-terminus” (Frontiers in Bioengineering and Biotechnology, 2022) are Km, kcat/Km and kcat values, retold here.

Substrate in this data set: NC(=O)CC[C@H](N)C(=O)O
Kind of data set: purified protein. The class given is biochemical, Bacillus subtilis. The conditions noted are these: 10–100 mM L-glutamine, 20 mM potassium phosphate, pH 7.5, 37°C, no NaCl.

Usually Km stands for the substrate concentration at which the rate is half of its maximum. As usually defined, the kcat/Km is the second-order rate constant that governs catalysis at low substrate concentration. Usually kcat stands for the number of substrate molecules converted per active site and unit of time at saturation.

B1: EAK16-E3C/E55F/D213T (Bacillus subtilis subsp. subtilis str. 168; D213T/E3C/E55F) (protein)
chain: KCLIKEHQKDINPALQLHDWVEYYRPFAANGQSANYIPALGKVNDSQLGICVLFPDGTMIHAGDWNVSFTMQSISKVISFIAACMSRGIPYVLDRVDVEPTGDAFNSIIRLEINKPGKPFNPMINAGALTIASILPGESAYEKLEFLYSVMETLIGKRPRIHEEVFRSEWETAHRNRALAYYLKETNFLEAEVEETLEVYLKQCAMESTTETIALIGLILAHDGYHPIRHEQVIPKDVAKLAKALMLTCGMYNASGKYAAFVGVPAKSGVSGGIMALVPPSARREQPFQSGCGIGIYGPAIDEYGNSLTGGMLLKHMAQEWELSIF
notes: N-terminal His-tag, designed peptide EAK16 (…) and PT linker (…) fused to N-terminus of triple mutant; expressed in B. subtilis WB600; oligomerises
On to B1, for which the Km is on record as 18.45 ± 1.2 mM and the kcat/Km was 174000 ± 4200 M⁻¹ s⁻¹.

B2: E3C/E55F/D213T (Bacillus subtilis subsp. subtilis str. 168; D213T/E3C/E55F) (protein)
chain: MKCLIKEHQKDINPALQLHDWVEYYRPFAANGQSANYIPALGKVNDSQLGICVLFPDGTMIHAGDWNVSFTMQSISKVISFIAACMSRGIPYVLDRVDVEPTGDAFNSIIRLEINKPGKPFNPMINAGALTIASILPGESAYEKLEFLYSVMETLIGKRPRIHEEVFRSEWETAHRNRALAYYLKETNFLEAEVEETLEVYLKQCAMESTTETIALIGLILAHDGYHPIRHEQVIPKDVAKLAKALMLTCGMYNASGKYAAFVGVPAKSGVSGGIMALVPPSARREQPFQSGCGIGIYGPAIDEYGNSLTGGMLLKHMAQEWELSIF
notes: full-length triple mutant, N-terminal His-tag kept, expressed in B. subtilis WB600 (pP43NMK), about 40 kDa
In the case of B2, the Km amounted to 22.72 ± 1.5 mM, the kcat came to 3730 ± 190 s⁻¹ and the kcat/Km was 162000 ± 3240 M⁻¹ s⁻¹.
